Results on one protein are retold here after publication doi:10.1101/2025.10.16.682859 (bioRxiv, 2025).

This data set concerns the molecule itself. The data set can be described thus: cryo-EM structure.

B1: human asparagine synthetase (ASNS) (enzyme)
chain: CGIWALFGSDDCLSVQCLSAMKIAHRGPDAFRFENVNGYTNCCFGFHRLAVVDPLFGMQPIRVKKYPYLWLCYNGEIYNHKKMQQHFEFEYQTKVDGEIILHLYDKGGIEQTICMLDGVFAFVLLDTANKKVFLGRDTYGVRPLFKAMTEDGFLAVCSEAKGLVTLKHSATPFLKVEPFLPGHYEVLDLKPNGKVASVEMVKYHHCRDVPLHALYDNVEKLFPGFEIETVKNNLRILFNNAVKKRLMTDRRIGCLLSGGLDSSLVAATLLKQLKEAQVQYPLQTFAIGMEDSPDLLAARKVADHIGSEHYEVLFNSEEGIQALDEVIFSLETYDITTVRASVGMYLISKYIRKNTDSVVIFSGEGSDELTQGYIYFHKAPSPEKAEEESERLLRELYLFDVLRADRTTAAHGLELRVPFLDHRFSSYYLSLPPEMRIPKNGIEKHLLRETFEDSNLIPKEILWRPKEAFSDGITSVKNSWFKILQEYVEHQVDDAMMANAAQKFPFNTPKTKEGYYYRQVFERHYPGRADWLSHYWMPKWINATDPSARTLTHYKSAVKA
For the protein B1, the “stoichiometry N” value worked out at 2.

What is called stoichiometry N is a count of units in the complex or per binding partner.
